The values that follow come from US20110064751A1 (Hoffmann-La Roche, published 2011).

The target in test [1] is T1, Murine FAP ectodomain + poly-lys-tag + his6-tag (murine, UniProt P97321 27-761).
T1 construct: also called mu FAP
The experiment in a line: first affinity maturation campaign: phage selections, ELISA and BIACORE kinetic screening. In general terms: An ELISA detects its analyte on a solid surface through an enzyme-linked reagent.

For test [2], the target named is T2, Human FAP ectodomain + poly-lys-tag + his6-tag (human, UniProt Q12884 27-760).
T2 construct: also called hu FAP
Described as above.

For test [3], the target named is T1, Murine FAP ectodomain + poly-lys-tag + …. Nature of the test: SPR (ProteOn XPR36), purified Fab, monovalent binding.
The target in test [4] is T2, Human FAP ectodomain + poly-lys-tag + …. Described as above.
The target in test [5] is T3, DPPIV expressed on HEK293 or CHO cells (Homo sapiens (Human), UniProt P27487 1-766).
T3 construct: also called close homologue of FAP
Nature of the test: binding to DPPIV-expressing HEK293 or CHO cells.

Test [6] addresses T4, Human TNC-A2 + avi-tag + his6-tag (human, biotinylated in vivo at the avi-tag).
T4 construct: also called hu TNC A2; A2 domain of human tenascin
T4 chain: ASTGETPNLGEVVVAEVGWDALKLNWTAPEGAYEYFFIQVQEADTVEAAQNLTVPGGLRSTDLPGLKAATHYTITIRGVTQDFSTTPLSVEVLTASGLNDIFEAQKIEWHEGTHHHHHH
Nature of the test: SPR (ProteOn XPR36), purified Fab, monovalent binding. On the procedure:
Selections were carried out against E. coli expressed human TNC A2 which was cloned upstream an avi-tag and 6×his-tag (see SEQ ID NO: 57 of Table 5). The antigen was biotinylated in vivo upon expression. Selections have been carried out in solution as described for the primary TNC A2 selections using decreasing concentrations of human TNC A2 ranging from 100 to 2 nM. After identification of affinity-matured clones by ELISA, secondary screenings were carried out using a ProteOn XPR36 biosensor (Biorad) and kinetic rate constants and affinities were determined analyzing affinity-purified Fab preparations on the same instrument.

B1: 3F2 Fab (Fab, V domains shown)
VH: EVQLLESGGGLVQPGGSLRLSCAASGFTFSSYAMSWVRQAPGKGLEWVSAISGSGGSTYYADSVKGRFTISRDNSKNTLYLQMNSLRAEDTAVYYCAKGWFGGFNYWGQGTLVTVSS
VL: EIVLTQSPGTLSLYPGERATLSCRASQSVTSSYLAWYQQKPGQAPRLLINVGSRRATGIPDRFSGSGSGTDFTLTISRLEPEDFAVYYCQQGIMLPPTFGQGTKVEIK
notes: Fab fragment; also called clone 3F2
For B1, the binding result in test [1] and in test [2] was “binds” in each case.

B2: 28H1 Fab (Fab, V domains shown)
VH: EVQLLESGGGLVQPGGSLRLSCAASGFTFSSHAMSWVRQAPGKGLEWVSAIWASGEQYYADSVKGRFTISRDNSKNTLYLQMNSLRAEDTAVYYCAKGWLGNFDYWGQGTLVTVSS
VL: EIVLTQSPGTLSLSPGERATLSCRASQSVSRSYLAWYQQKPGQAPRLLIIGASTRATGIPDRFSGSGSGTDFTLTISRLEPEDFAVYYCQQGQVIPPTFGQGTKVEIK
notes: also called clone 28H1
For the molecule B2, the Kd (as a rule, the free concentration of one partner at which half of the binding sites on the other are occupied at equilibrium, for simple one-to-one binding) in test [3] amounted to 0.009 nM; in test [4] it was 0.2 nM. Also, in test [5], the binding result was “no binding”.

B3: 16F1 Fab (Fab, V domains shown)
VH: EVQLLESGGGLVQPGGSLRLSCAASGFTFSSYAMSWVRQAPGKGLEWVSGIIGSGGITYYADSVKGRFTISRDNSKNTLYLQMNSLRAEDTAVYYCAKGWFGGFNYWGQGTLVTVSS
VL: EIVLTQSPGTLSLSPGERATLSCRASQSVTSSYLAWYQQKPGQAPRLLINVGSRRATGIPDRFSGSGSGTDFTLTISRLEPEDFAVYYCQQGIMLPPTFGQGTKVEIK
notes: also called clone 16F1
Turning to B3, the Kd in test [3] was found to be 3.4 nM; in test [4], 0.193 nM. Also, the binding result in test [5] is recorded as “no binding”.

B4: O3C9 Fab (Fab, V domains shown)
VH: EVQLLESGGGLVQPGGSLRLSCAASGFTFSSFAMSWVRQSPGKGLEWVSAIIGSGSNTYYADSVKGRFTISRDNSKNTLYLQMNSLRAEDTAVYYCAKGWFGGFNYWGQGTLVTVSS
VL: EIVLTQSPGTLSLSPGERATLSCRASQSVTSSYLAWYQQKPGQAPRLLINVGSRRATGIPDRFSGSGSGTDFTLTISRLEPEDFAVYYCQQGIMLPPTFGQGTKVEIK
notes: also called clone O3C9
B4: the dissociation constant Kd in test [3] came to 3.7 nM; in test [4] it was 0.16 nM. For the same molecule, in test [5], the binding result is “no binding”.

B5: 19G1 Fab (Fab, V domains shown)
VH: EVQLLESGGGLVQPGGSLRLSCAASGFTFSSYAMSWVRQAPGKGLEWVSAIISSGGLTYYADSVKGRFTISRDNSKNTLYLQMNSLRAEDTAVYYCAKGWFGGFNYWGQGTLVTVSS
VL: EIVLTQSPGTLSLSPGERATLSCRASQSVTSSYLAWYQQKPGQAPRLLINVGSRRATGIPDRFSGSGSGTDFTLTISRLEPEDFAVYYCQQGIMLPPTFGQGTKVEIK
notes: also called clone 19G1
For the molecule B5, the Kd is 2.6 nM in test [3] and 0.076 nM in test [4]. Moreover, the binding result in test [5] is on record as “no binding”.

B6: 5B8 Fab (Fab, V domains shown)
VH: EVQLLESGGGLVQPGGSLRLSCAASGFTFSSYAMSWVRQAPGKGLEWVSAIWGGGRSTYYADSVKGRFTISRDNSKNTLYLQMNSLRAEDTAVYYCAKGWFGGFNYWGQGTLVTVSS
VL: EIVLTQSPGTLSLSPGERATLSCRASQSVTSSYLAWYQQKPGQAPRLLINVGSRRATGIPDRFSGSGSGTDFTLTISRLEPEDFAVYYCQQGIMLPPTFGQGTKVEIK
notes: also called clone 5B8
As for B6, the dissociation constant (Kd) was 3.2 nM in test [3] and 0.69 nM in test [4]. Also, in test [5], the binding result was “no binding”.

B7: 4B9 Fab (Fab, V domains shown)
VH: EVQLLESGGGLVQPGGSLRLSCAASGFTFSSYAMSWVRQAPGKGLEWVSAIIGSGASTYYADSVKGRFTISRDNSKNTLYLQMNSLRAEDTAVYYCAKGWFGGFNYWGQGTLVTVSS
VL: EIVLTQSPGTLSLSPGERATLSCRASQSVTSSYLAWYQQKPGQAPRLLINVGSRRATGIPDRFSGSGSGTDFTLTISRLEPEDFAVYYCQQGIMLPPTFGQGTKVEIK
notes: also called clone 4B9
As to B7, the Kd in test [3] was found to be 3.3 nM; in test [4] it was 0.157 nM. For the same molecule, the binding result in test [5] is given as “no binding”.

B8: O2D7 Fab (Fab, V domains shown)
VH: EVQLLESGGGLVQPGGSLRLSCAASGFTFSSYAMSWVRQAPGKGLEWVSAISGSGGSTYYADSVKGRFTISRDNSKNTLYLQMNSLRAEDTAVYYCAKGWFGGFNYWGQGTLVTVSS
VL: EIVLTQSPGTLSLSPGERATLSCRASQSVTSSYLAWYQQKPGQAPRLLINVGSRRATGTPDRFSGSGSGTDFTLTISRLEPEDFAVYYCQQAIMLPPTFGQGTKVEIK
notes: also called clone O2D7
With B8, the Kd in test [3] was 8.3 nM; in test [4] it was 0.619 nM. In addition, the binding result in test [5] is given as “no binding”.

B9: 16F8 Fab (Fab, V domains shown)
VH: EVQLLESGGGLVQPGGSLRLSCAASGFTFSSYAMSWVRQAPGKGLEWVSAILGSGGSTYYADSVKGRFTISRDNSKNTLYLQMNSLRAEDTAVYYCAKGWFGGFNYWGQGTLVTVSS
VL: EIVLTQSPGTLSLSPGERATLSCRASQSVTSSYLAWYQQKPGQAPRLLINVGSRRATGIPDRFSGSGSGTDFTLTISRLEPEDFAVYYCQQGIMLPPTFGQGTKVEIK
notes: also called clone 16F8
With B9, the results for the dissociation constant (Kd) in test [3] and in test [4] were 3.8 nM and 0.301 nM, respectively. Also, the binding result in test [5] is “no binding”.

B10: 14B3 Fab (Fab, V domains shown)
VH: EVQLLESGGGLVQPGGSLRLSCAASGFTFSSYAMSWVRQAPGKGLEWVSAILASGAITYYADSVKGRFTISRDNSKNTLYLQMNSLRAEDTAVYYCAKGWFGGFNYWGQGTLVTVSS
VL: EIVLTQSPGTLSLSPGERATLSCRASQSVTSSYLAWYQQKPGQAPRLLINVGSRRATGIPDRFSGSGSGTDFTLTISRLEPEDFAVYYCQQGIMLPPTFGQGTKVEIK
notes: also called clone 14B3
As for B10, the Kd in test [3] turned out to be 3.8 nM; in test [4], 0.377 nM. In test [5], the binding result is given as “no binding”.

B11: 5F1 Fab (Fab, V domains shown)
VH: EVQLLESGGGLVQPGGSLRLSCAASGFTFSSYAMSWVRQAPGKGLEWVSAIISSGASTYYADSVKGRFTISRDNSKNTLYLQMNSLRAEDTAVYYCAKGWFGGFNYWGQGTLVTVSS
VL: EIVLTQSPGTLSLSPGERATLSCRASQSVTSSYLAWYQQKPGQAPRLLINVGSRRATGIPDRFSGSGSGTDFTLTISRLEPEDFAVYYCQQGIMLPPTFGQGTKVEIK
notes: also called clone 5F1
In the case of B11, the values for the Kd in test [3] and in test [4] were 4.1 nM and 0.243 nM, respectively. Also, the binding result in test [5] is reported as “no binding”.

B12: 20G8 Fab (Fab, V domains shown)
VH: EVQLLESGGGLVQPGGSLRLSCAASGFTFSSYAMSWVRQAPGKGLEWVSAIIGSGSRTYYADSVKGRFTISRDNSKNTLYLQMNSLRAEDTAVYYCAKGWFGGFNYWGQGTLVTVSS
VL: EIVLTQSPGTLSLSPGERATLSCRASQSVTSSYLAWYQQKPGQAPRLLINVGSRRATGIPDRFSGSGSGTDFTLTISRLEPEDFAVYYCQQGIMLPPTFGQGTKVEIK
notes: also called clone 20G8
B12: the Kd was 2.8 nM in test [3] and 0.069 nM in test [4]. Further, the binding result in test [5] is given as “no binding”.

B13: 2B10_6A12 Fab (Fab, V domains shown)
VH: QVQLVQSGAEVKKPGSSVKVSCKASGGTFSSYAISWVRQAPGQGLEWMGVIIPILGTANYAQKFQGRVTITADKSTSTAYMELSSLRSEDTAVYYCARLYGYAYYGAFDYWGQGTTVTVSS
VL: DIQMTQSPSSLSASVGDRVTITCRASQGIRNDLGWYQQKPGKAPKRLIYAASSLQSGVPSRFSGSGSGTEFTLTISSLQPEDFATYYCLQNGLQPATFGQGTKVEIK
notes: also called clone 2B10-6A12
Turning to B13, the dissociation constant (Kd) in test [6] worked out at 0.29 nM.

B14: 2B10_O7D8 Fab (Fab, V domains shown)
VH: QVQLVQSGAEVKKPGSSVKVSCKASGGTFSSYAISWVRQAPGQGLEWMGGIIPIFGTANYAQKFQGRVTITADKSTSTAYMELSSLRSEDTAVYYCARLYGYAYYGAFDYWGQGTTVTVSS
VL: DIQMTQSPSSLSASVGDRVTITCRASQSIRNVLGWYQQKPGKAPKRLIYDVSSLQSGVPSRFSGGGSGTEFTLTISSLQPEDFATYYCLQNGLQPATFGQGTKVEIK
notes: also called clone 2B10_O7D8
Turning to B14, in test [6], the Kd was 0.147 nM.

B15: 2B10_6H10 Fab (Fab, V domains shown)
VH: QVQLVQSGAEVKKPGSSVKVSCKASGGTFSSYAISWVRQAPGQGLEWMGGIIPIFGTANYAQKFQGRVTITADKSTSTAYMELSSLRSEDTAVYYCARLYGYAYYGAFDYWGQGTTVTVSS
VL: DIQMTQSPSSLSASVGDRVTITCRASQGIRNVLGWYQQKPGKAPKRLIQAATSLQSGVPSRFSGGGSGTEFTLTISSLQPEDFATYYCLQNGLQPATFGQGTKVEIK
notes: also called clone 2B10-6H10
Regarding B15, the Kd in test [6] was 0.81 nM.

B16: 2B10_C3B6 Fab (Fab, V domains shown)
VH: QVQLVQSGAEVKKPGSSVKVSCKASGGTFSSYAISWVRQAPGQGLEWMGAIIPILGIANYAQKFQGRVTITADKSTSTAYMELSSLRSEDTAVYYCARLYGYAYYGAFDYWGQGTTVTVSS
VL: DIQMTQSPSSLSASVGDRVTITCRASQGIRNDLGWYQQKPGKAPKRLIYAASSLQSGVPSRFSGSGSGTEFTLTISSLQPEDFATYYCLQNGLQPATFGQGTKVEIK
notes: also called clone 2B10_C3B6
As for B16, in test [6], the Kd came out at 0.191 nM.

B17: 2B10_C3A6 Fab (Fab, V domains shown)
VH: QVQLVQSGAEVKKPGSSVKVSCKASGGTFSSYAISWVRQAPGQGLEWMGGIIPIFGTANYAQKFQGRVTITADKSTSTAYMELSSLRSEDTAVYYCARLYGYAYYGAFDYWGQGTTVTVSS
VL: DIQMTQSPSSLSASVGDRVTITCRASQGIRNVLGWYQQKPGKAPKRLIYDSSSLQSGVPSRFSGGGSGTEFTLTISSLQPEDFATYYCLQNGLQPATFGQGTKVEIK
notes: also called clone 2B10_C3A6
On to B17, for which the Kd in test [6] came out at 0.497 nM.

B18: 2B10_O1F7 Fab (Fab, V domains shown)
VH: QVQLVQSGAEVKKPGSSVKVSCKASGGTFSSYAISWVRQAPGQGLEWMGGIIPIFGTANYAQKFQGRVTITADKSTSTAYMELSSLRSEDTAVYYCARLYGYAYYGAFDYWGQGTTVTVSS
VL: DIQMTQSPSSLSASVGDRVTITCRASQGIRNVLGWYQQKPGKAPKRLIYDASSLQSGVPSRFSGGGSGTEFTLTISSLQPEDFATYYCLQNGLQPATFGQGTKVEIK
notes: also called clone 2B10_O1F7
Turning to B18, the equilibrium dissociation constant (Kd) in test [6] was 0.056 nM.
